Laboratory results from article PMC2749821.

Legend:
[1] = molecular target: T1, activin receptor type I (ActR-I) ectodomain, human (human), Q04771; assay: SPR; Biacore 2000; ligands as analyte over biotinylated receptor ectodomains (about 200 RU) on streptavidin-coated CM5 chips; HBS500 (10 mM HEPES pH 7.4, 500 mM NaCl, 3.4 mM EDTA, 0.005% P20), 25°C, 10 μl/min; apparent affinities, 1:2 interaction with avidity; conditions: remark: other sources report otherwise
T1 chain: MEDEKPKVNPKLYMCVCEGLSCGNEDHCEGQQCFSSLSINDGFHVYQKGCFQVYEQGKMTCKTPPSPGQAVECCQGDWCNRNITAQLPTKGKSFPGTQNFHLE

activin A, human (human) = activin A, human (human) (UniProt P08476); assay: SPR; Biacore 2000; receptor ectodomains as analyte over biotinylated ligands on streptavidin-coated CM5 chips; HBS500, 25°C, 10 μl/min; apparent affinities, 1:1 interaction
[2] = molecular target: preformed complex of GDF5 with an immobilized type I receptor ectodomain (BMPR-IA or BMPR-IB) (UniProt P43026); assay: SPR; ternary complexes by coinjection: 100 nM ligand perfused 2 min over the immobilized type I receptor ectodomain, then 100 nM ligand plus 0 to 64 μM soluble type II receptor ectodomain; HBS500, 25°C; equilibrium dose response
[3] = molecular target: preformed complex of BMP7 with immobilized BMPR-IB ectodomain (human | mouse) (UniProt P18075); assay: as above
[4] = molecular target: preformed complex of BMP2 with immobilized BMPR-IA ectodomain (human) (UniProt P12643); assay: as above
[5] = molecular target: T2, bone morphogenetic protein 7 (BMP7), human (human), P18075; assay: SPR; Biacore 2000; receptor ectodomains as analyte over biotinylated ligands on streptavidin-coated CM5 chips; HBS500, 25°C, 10 μl/min; apparent affinities, 1:1 interaction; conditions: remark: other sources report otherwise
T2 chain: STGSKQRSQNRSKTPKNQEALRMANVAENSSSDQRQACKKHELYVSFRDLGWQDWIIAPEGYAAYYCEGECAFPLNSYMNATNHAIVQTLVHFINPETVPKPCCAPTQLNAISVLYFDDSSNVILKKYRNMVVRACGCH

B1: bone morphogenetic protein 7 (BMP7), human, P18075 293-431 (ligand)
chain: T2 chain
modifications: here or on the partner: biotin (sulfo-NHS-LC-biotin) where immobilised; N-biotinylated (sulfo-NHS-LC-biotin) where immobilised
For B1, the KD (eq) [1] was > 0.5 µM and the Kd [1] was > 0.5 µM.

B2: BMP receptor II (BMPR-II) ectodomain, human (receptor)
chain: RLCAFKDPYQQDLGIGESRISHENGTILCSKGSTCYGLWEKSKGDINLVKQGCWSHIGDPQECHYEECVVTTTPPSIQNGTYRFCCCSTDLCNVNFTENFPPPDTTPLSPPHSFNRDET
modifications: N-biotinylated (sulfo-NHS-LC-biotin) where immobilised
Work on B2 yielded a Kd (activin A, human (human)) of 0.89 µM, a koff (activin A, human (human)) of 0.076 s⁻¹ and a kon (activin A, human (human)) of 100000 M⁻¹ s⁻¹. The Kd [2] was 32 µM, the Kd [3] was 16 µM and the Kd [4] was 22 µM.

B3: activin receptor type I (ActR-I) ectodomain, human, Q04771 21-123 (receptor)
chain: T1 chain
modifications: here or on the partner: N-biotinylated (sulfo-NHS-LC-biotin) where immobilised; biotin (sulfo-NHS-LC-biotin) where immobilised
Work on B3 yielded a Kd [5] of 58 µM.
